We go through one molecule from patent US20180355059A1.

This test has as its target recombinant human PCSK9^D374Y protein (human), Q8NBP7. Briefly: cell-based or functional assay.

B1: 103C11E8, chimeric anti-PCSK9 antibody from hybridoma (antibody, V domains shown)
VH: QVQLQESGPGLVKPSGTLSLTCAVSGGSISSSNWWSWVRQPPGKGLEWIGEIYHSGSTNYNPSLKSRVTISVDKSKNQFSLKLSSVTAADTAVYYCARGIAVAGTDVMDAWGQGASVTVSS
VL: EIVLTQSPATLSLSPGERATLSCRASQSVSSYLVWYQQKSGQAPRLLIYGTSNRATGIPARFSGSGSGTDFTLTISSLEPEDFALYYCQQRGNWMYTFGQGTKLEIK
modifications: here or on the partner: biotinylated in the ELISA assays
For B1, the LDL (%), LDL uptake by HepG2 cells; antibody 0.67 nM is 20%; the LDL (%), LDL uptake by HepG2 cells; antibody 6.67 nM is 43.8%; the LDL (%), LDL uptake by HepG2 cells; antibody 66.70 nM was determined as 86.4%.
